Experimental findings from patent US20210253737A1 are described below.

Assay [1] concerns the target carboxymethyl lysine conjugated to keyhole limpet hemocyanin (CML-KLH). Briefly: direct binding ELISA, CML-KLH coat 1 µg/mL, antibody at 0.21 µg/mL. On the technique in general: In an ELISA, binding on a coated surface is turned into a signal by an enzyme label.
For assay [2] the target is unchanged. Briefly: direct binding ELISA, CML-KLH coat 1 µg/mL, antibody at 50 µg/mL.
Assay [3] has the same target. Nature of the assay: direct binding ELISA, CML-KLH coat 1 µg/mL, antibody at 16.67 µg/mL.
For assay [4] the target is unchanged. Nature of the assay: direct binding ELISA, CML-KLH coat 1 µg/mL, antibody at 0.62 µg/mL.
Assay [5] shares this target. Briefly: direct binding ELISA, CML-KLH coat 1 µg/mL, antibody at 5.56 µg/mL.
The target is the same in assay [6]. Briefly: direct binding ELISA, CML-KLH coat 1 µg/mL, antibody at 0.07 µg/mL.
The target is the same in assay [7]. Briefly: direct binding ELISA, CML-KLH coat 1 µg/mL, antibody at 1.85 µg/mL.
Assay [8] has the same target. Briefly: direct binding ELISA, CML-KLH coat 1 µg/mL, antibody at 0 µg/mL (buffer control well, background).

With “carboxymethyl lysine MAb (Clone 318003), R&D Systems, Inc., catalog no. MAB3247 (antibody)”, the OD450 in assay [1] was determined as 0.075 OD450; in assay [2], 0.462 OD450; in assay [3], 0.312 OD450; in assay [4], 0.083 OD450; in assay [5], 0.165 OD450; in assay [6], 0.086 OD450. Besides, the OD450 in assay [7] turned out to be 0.092 OD450; in assay [8], 0.09 OD450.
